Measured values: patent US20110081354A1 (Bristol-Myers Squibb, published 2011)
Positions count from the first letter of the chain named. One block for each binder: values may come before it.

Tests used:
[1] = biological target: T1, CTLA-4-Ig fusion protein comprising the extracellular domain of human CTLA-4 fused to the Fc region of human … (human, UniProt P16410 36-161); test: blocking assay, flow cytometry: inhibition of CTLA-4-Ig binding to mouse B7-1 expressing cells
T1 construct: extracellular domain; also called CTLA-4 Hu Ig; soluble human CTLA-4 fusion protein; not shown: Fc region of human immunoglobulin
T1 sequence (looked up): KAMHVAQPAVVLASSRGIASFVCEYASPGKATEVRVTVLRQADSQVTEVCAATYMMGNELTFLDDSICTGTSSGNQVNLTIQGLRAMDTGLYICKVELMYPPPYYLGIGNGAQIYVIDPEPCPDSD

[2] = biological target: T2, chimeric CTLA-4 protein comprising the extracellular and transmembrane domains of human CTLA-4 linked to the … (human; murine, UniProt P16410 36-187; P24161 52-164, limits assumed); test: flow cytometry on cells expressing chimeric human CTLA-4/CD3zeta; PE anti-human IgG detection
T2 construct: domain: extracellular and transmembrane domains;domain: intracellular domain; also called cell surface CTLA4; hCTLA4+ cells

EC50 [1]: 7.41 nM
EC50 [2]: 0.661 nM
B1: 3A4 human monoclonal antibody (antibody, V domains shown)
VH: QVQVVESGGGVVQPGRSLRLSCAASGFTFSSYGMHWVRQAPGKGLEWVAVIWYDGSNKYYVDSVKGRFTISRDNSKNTLYLQMNSLRAEDTAVYYCARGPGYSSSFDYWGQGTLVTVSS
VL: DIQMTQSPSSLSASVGDRVTITCRASQGISSWLAWYQQKPEKAPKSLIYAASSLQSGVPSRFSGSGSGTDFTLTISSLQPEDFATYYCQQYNSYPLTFGGGTKVEIK
notes: Purified human IgG kappa antibody from a hybridoma (HuMab mouse); also called mAb 3A4

EC50 [1]: 15.3 nM
EC50 [2]: 0.247 nM
B2: 6C10 human monoclonal antibody (antibody, V domains shown)
VH: B1 VH with V4L, A23T, Y32H, I51V, Y53F, P100S, S105G
VL: B1 VL
notes: Purified human IgG kappa antibody from a hybridoma (HuMab mouse); also called mAb 6C10
